# Source: patent US7105156 (University of California, dated 2006)
# T1: p56^RB protein (amino-truncated 56 kDa RB protein, C-terminal half of the RB protein) (Homo sapiens (Human), UniProt P06400 379-928)
# T1 sequence: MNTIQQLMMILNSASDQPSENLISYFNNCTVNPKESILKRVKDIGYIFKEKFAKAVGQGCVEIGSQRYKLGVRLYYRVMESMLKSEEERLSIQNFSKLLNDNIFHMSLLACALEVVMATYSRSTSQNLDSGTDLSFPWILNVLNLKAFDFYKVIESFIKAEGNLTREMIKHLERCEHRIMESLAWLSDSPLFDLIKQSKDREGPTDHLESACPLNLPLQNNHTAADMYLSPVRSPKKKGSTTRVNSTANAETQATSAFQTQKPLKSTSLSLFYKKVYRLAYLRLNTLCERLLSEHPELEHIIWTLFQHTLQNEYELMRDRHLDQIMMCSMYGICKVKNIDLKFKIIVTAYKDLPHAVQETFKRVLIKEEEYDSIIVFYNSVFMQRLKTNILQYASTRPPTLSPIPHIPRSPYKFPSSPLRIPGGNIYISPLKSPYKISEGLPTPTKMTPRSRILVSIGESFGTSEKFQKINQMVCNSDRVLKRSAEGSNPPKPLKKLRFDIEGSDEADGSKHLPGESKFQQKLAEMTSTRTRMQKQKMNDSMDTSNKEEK
# Target: T1, p56^RB protein (amino-truncated 56 kDa …)
# Assay: cell-based or functional assay
binder,measurement,value
"ENLFCSEEMPSSDDEATA [T peptide (SV40 T-antigen peptide, amino acids 101-118)]","percent of injected cells incorporating BrdU (Saos-2 cells, 5 mM T peptide, 500 to 1000-fold molar excess over p56^RB)",~70%
